Where a chain is given by its changes, count along the chain named.
B1: MPT21.8 (protein)
chain: MSDNSIATKILNFGHTCWKLQRPYVVKGMISIACGLFGKELLHNTNLISWGLMWKAFFALVPILSFNFFAGIMNQIYDVDIDRINKPDLPLVSGEMSIETAWILSIIVALTGLIVTIKLKSAPLFVFIYIFGIFAGFAYSVPPIRWKQNPSTNFLITISSHVGLAFTSYYASRAALGLPFELRPSFTFLLAFMTVMGMTIAFAKDISDIEGDAKYGVSTVATKLGARNMTFVVSGVLLLNYVAAILAGIIWPQAFNSNVMLLSHAILAFCLIFQTRELALANYASAPSRQFFEFIWLLYYAEYFVYVFI
modifications: MPT21.8 (recombinant membrane-bound prenyltransferase)
B2: MPT21.10 (protein)
chain: B1 chain with G71A, I81M
modifications: MPT21.10 (recombinant membrane-bound prenyltransferase)
B3: APT73.74: recombinant soluble aromatic prenyltransferase, SEQ ID NO: 37 (protein)
chain: MDEVYAAVEQTSRLLDVPCSPDRFEPVWKAFGDQLPDSHLVFSMAAGEAHRGELDFDFSLRPEGADPYTTALEHGFIEPTDHPVGSVLAEVGKRFAIASYGVEYGVVGGFKKSYAFFPLDDFPPLAQFAEVPSVPPCLAGHVETLTRLGFDDKVSIIGVNYRKNTLNVYLAASAVDTGDKLALLRAFGYPEPDARVRQFIERSFRLYPTFNWDSSAAERICFAVHTQQPGELPAPHDEPTEAFARQVPHVYEGGREFVSGVALAPSGASYYKLAALYQKARRCLH
modifications: APT73.74 (mutant soluble aromatic prenyltransferase)
B4: APT73.77: recombinant soluble aromatic prenyltransferase, SEQ ID NO: 38 (protein)
chain: B3 chain with H285D
modifications: APT73.77 (mutant soluble aromatic prenyltransferase)
B5: MPT4.1 (protein)
chain: MSDNSIATKILNFGHTCWKLQRPYAVKGMISIACGLFGRELFNNRHLFSWGLMWKAFFALVPILSFNFFAAIMNQIYDVDIDRINKPDLPLVSGEMSIETAWILSIIVALTGLIVTIKLKSAPLFVFIYIFGIFAGFAYSVPPIRWKQYPFTNFLITISSHVGLAFTSYSATTSALGLPFVWRPAFSFIIAFMTVMGMTIAFAKDISDIEGDAKYGVSTVATKLGARNMTFVVSGVLLLNYLVSISIGIIWPQVFKSNIMILSHAILAFCLIFQTRELALANYASAPSRQFFEFIWLLYYAEYFVYVFI
modifications: MPT4.1 (point mutant, membrane-bound prenyltransferase)
B6: MPT4: membrane-bound prenyltransferase, SEQ ID NO: 2, comparator (protein)
chain: B5 chain with A25V
modifications: MPT4 (membrane-bound prenyltransferase)

Legend:
Format in all cases: cell-based, Yarrowia
olivetolic acid [1] = assay: GPS1.1 fusions of MPT21 mutants, OA feed (Example 8, Table 10); settings: in words; mutagenesis of MPT21, tested as GPS1.1-F11 fusions
Protocol: (§1) Overnight YPD (10 g/L yeast extract, 20 g/L peptone, 2% dextrose) cultures were inoculated from glycerol stocks of the appropriate strain and grown at 30° C. with 250 rpm shaking. Once cultures had reached an OD600 of 4-6, cultures were centrifuged at 500×g for 5 min, supernatants were discarded, and cell pellets were resuspended in equal volume of water. Resuspended cells were centrifuged at 500×g for 5 min, supernatants were discarded, and cells were resuspended in a volume (75 μL×OD×Vculture) of transformation cocktail (45% PEG-400, 0.1 M LiAc, 0.1 M DTT, and 25 ug/100 μL SS Salmon Sperm DNA). For each transformation, >1 μg of plasmid DNA was added to 55 μL cells/transformation cocktail and vortexed for 2 s. Transformations were incubated at 39° C. for 1 h with 250 rpm shaking. Transformations were resuspended in 750 μL YPD with 1 M sorbitol and recovered at 30° C. overnight with 250 rpm shaking. The next day, transformations were centrifuged at 500×g for 5 min, supernatants were discarded, and cell pellets were resuspended in 750 YPD. Resuspended transformations were plated on YPD with appropriate selection or YNBD (6.71 g/L yeast nitrogen base+nitrogen, 0.5% casamino acids, 2% dextrose) agar plates and grown at 30° C. for 2 days. Individual colonies were patched onto YPD plates with appropriate selection or YNBD plates and grown at 30° C. overnight. Patches were used to inoculate 0.5 mL YPD with appropriate selection or YNBD precultures in 96 w blocks and grown at 30° C. for 24-48 h with 1000 rpm shaking. For assays, 0.5 mL YPD with appropriate selection or YNBD cultures containing substrate were inoculated with 2 μL from precultures and grown at 30° C. for 2-4 days with 1000 rpm shaking with 2% glucose added every 24 h. Assay cultures were quenched by addition of 0.5 mL ethanol with 0.2% formic acid and 0.5 mg/mL pentyl-benzoic acid. Precipitates were pelleted by centrifuging at 4600×g for 10 min and then 200 μL was transferred to fresh plates, sealed, and analyzed via HPLC.
(§2) All samples were quenched with equal volume of EtOH containing 0.2 mg/mL internal standard (3,5-Diisopropyl-2-hydroxybenzoic acid CAS #2215-21-6) centrifuged, and clarified solutions were analyzed by HPLC-MS
(§3) • Column: 2.1×50 mm COSMOCORE PBr (Nacalai USA, Inc.) • Mobile Phase: A; 0.1% formic acid in water, B; 0.1% formic acid in acetonitrile • Flow: 0.45 mL/min • Temp: % 50 Celsius • Gradient: 20%B at 0 min, 70%B at 2.3 min, 89% B at 4.2 min, 20% B at 4.3 min, 20%B at 6 min

olivetolic acid [2] = assay: Unfused rMPTs and APTs, CBGA/FCBGA formation in vivo assay (Example 4); settings: for CBGA / FCBGA / CBGA/FCB: 2 mM olivetolic acid, 48 h quench; for CBGA / FCBGA: 2% glucose, strain sCL-SE-0128; for CBGA/FCB: product ratio
Protocol: (§4) As described below, plasmids pCL-SE-0380 (MPT4), pCL-SE-0337.MPT4, pCL-SE-0338.APT73.74, and pCL-SE-0338.APT73.77 were transformed into strain sCL-SE-0128. Multiple colonies per transformation were precultured for 48 h in YNB containing glucose (2%), casamino acids (0.5%), and MES (100 mM pH 6.5). Pre-culture was used to inoculate assay medium comprised of YNB containing glucose (2%), casamino acids (0.5%), MES (100 mM pH 6.5), and olivetolic acid or divarinic acid (2 mM). Cultures were quenched with equal volume of ethanol after 48 h total growth and assayed for CBG(V)A and FCBG(V)A. Averages and standard deviations were calculated from replicates.
as §1, §2, §3

divarinic acid [3] = assay: Unfused rMPTs and APTs, CBGVA/FCBGVA formation in vivo assay (Example 4); settings: 2 mM divarinic acid, 48 hour quench; for CBGVA / FCBGVA: 2% glucose, strain sCL-SE-0128
Protocol: as §4, §1, §2, §3

olivetolic acid [4] = assay: GPS-APT fusions, OA feed in vivo assay (Example 11)
Protocol: as §4, with “plasmids pCL-SE-0406, pCL-SE-0664, pCL-SE-0663, pCL-SE-0662,” for “plasmids”, “pCL-SE-0337.MPT21, pCL-SE-0337.MPT26,” for “pCL-SE-0337.MPT4, pCL-SE-0338.APT73.74,”, “pCL-SE-0337.MPT31” for “pCL-SE-0338.APT73.77”, “acid” for “acid or divarinic acid”, “CBGA” for “CBG(V)A”, “FCBGA.” for “FCBG(V)A.”
Soluble prenyl transferase APT73.77 was fused with GPS1.1 at the N- or C-terminus with different linkers creating the plasmids shown in Table 14. These fusion proteins were expressed and screened as described in Example 8 (olivetolic acid feed)
as §1, §2, §3

olivetolic acid [5] = assay: MPT4.1 with and without GPS1.1 fusion vs MPT4 fusion, in vivo assay (Example 5); settings: 3 mM olivetolic acid, 48 h quench
Protocol: (§5) As described below, plasmids pCL-SE-0337.MPT4.1 and pCL-SE-0753 were transformed into strain sCL-SE-0128. Multiple colonies per transformation were precultured for 24 h in YNB containing glucose (2%), casamino acids (0.5%), and MES (100 mM pH 6.5). Pre-culture was used to inoculate assay medium comprised of YNB containing glucose (6%), casamino acids (0.5%), MES (100 mM pH 6.5), and olivetolic acid (3 mM). Cultures were quenched with equal volume of ethanol after 48 h total growth and assayed for CBGA and FCBGA. Averages and standard deviations were calculated from replicates.
as §1, §2, §3

divarinic acid [6] = assay: MPT fusions with GPS1.1 vs unfused MPTs, DVA feed (Example 9, Table 11); settings: 2 mM divarinic acid, 2% glucose, quenched after 48 h; strain sCL-SE-0128
Protocol: as §4, with “plasmids pCL-SE-0406, pCL-SE-0664, pCL-SE-0663, pCL-SE-0662,” for “plasmids”, “pCL-SE-0337.MPT21,” for “pCL-SE-0337.MPT4, pCL-SE-0338.APT73.74, and pCL-SE-0338.APT73.77”, “and” for “and olivetolic acid or”, “quenched” for “quenched with equal volume of ethanol”, “CBGVA” for “CBG(V)A”, “FCBGVA.” for “FCBG(V)A.”
as §1, §2, §3

olivetolic acid [7] = assay: MPT fusions with GPS1.1 vs unfused MPTs, OA feed (Example 8, Table 9); settings: 2 mM olivetolic acid, 48 h quench
Protocol: as §5, with “pCL-SE-0406, pCL-SE-0664, pCL-SE-0663, pCL-SE-0662, pCL-SE-0380 (MPT4), pCL-SE-0337.MPT21, pCL-SE-0337.MPT26,” for “pCL-SE-0337.MPT4.1”, “pCL-SE-0337.MPT31” for “pCL-SE-0753”, “48” for “24”, “(2%),” for “(6%),”, “(2” for “(3”
as §1, §2, §3

olivetolic acid [8] = assay: Linkers for GPS1.1-MPT4 fusions, in vivo assay (Example 6); settings: 1 mM olivetolic acid, 72 h quench
Protocol: As described in detail below, plasmids pCL-SE-0380 (MPT4), pCL-SE-0406, pCL-SE-0435, and pCL-SE-0437 were transformed into strain sCL-SE-0128. Four separate colonies per transformation were precultured for 24 h in YNB containing glycerol (2%), casamino acids (0.5%), and MES (100 mM pH 6.5). Pre-culture was used to inoculate assay medium comprised of YNB containing glycerol (2%), casamino acids (0.5%), MES (100 mM pH 6.5), and olivetolic acid (1 mM). Cultures were quenched after 72 h total growth by mixing with equal volume of EtOH. Enzymes produced CBGA and FCBGA. Averages and standard deviations were calculated from replicates.
However, sCL-SE-0128 expresses HMGR and GPS1.1 to increase intracellular GPP levels for prenylation of OA to CBGA. The plasmids that were transformed contain either a gene expressing a prenyl-transferase (pCL-SE-0380 (MPT4)) or a gene expressing a fusion between GPS1.1 and a prenyl-transferase with different linker sequences.
as §1, §2, §3

[9] = in words, between APT73 mutants
[10] = olivetolic acid feed as in Example 8, 48 h quench, strain sCL-SE-0128
[11] = 2% glycerol, strain sCL-SE-0128

Molecule | ratio of CBGA/FCBGA (olivetolic acid [1]) | CBGA (olivetolic acid [2]) [µM] | FCBGA (olivetolic acid [2]) [µM] | CBGA/FCB (olivetolic acid [2]) | CBGVA (divarinic acid [3]) [µM] | FCBGVA (divarinic acid [3]) [µM] | also measured
B1 | improved ratio of CBGA/FCBGA |  |  |  |  |  | 
B2 | improved ratio of CBGA/FCBGA |  |  |  |  |  | 
B3 |  | 123 ± 5 | 18 ± 1 | 6.7 | 10 ± 0 | 0 ± 0 | selectivity (CBGA/FCBGA) (olivetolic acid [2]; [9]): better selectivity
B4 |  | 145 ± 13 | 55 ± 3 | 2.6 | 10 ± 1 | 1 ± 1 | CBGA (olivetolic acid [4]; [10]): 215 ± 11 µM; FCBGA (olivetolic acid [4]; [10]): 32 ± 1 µM; CBGA/FCBG (olivetolic acid [4]; olivetolic acid feed, 48 h quench, product ratio): 6.8; overall activity (CBGA+FCBGA) (olivetolic acid [2]; [9]): better overall activity; CBGVA/FCBGVA (divarinic acid [3]; product ratio): 12.5
B5 |  | 168 ± 33 | 11 ± 2 | 14.6 | 28 ± 8 | 0 ± 0 | CBGA (olivetolic acid [5]; 6% glucose, strain sCL-SE-0128): 253 ± 18 µM; FCBGA (olivetolic acid [5]; 6% glucose, strain sCL-SE-0128): 26 ± 2 µM; CBGA/FCBGA (olivetolic acid [5]; product ratio): 9.7; FCBGA byproduct compared to MPT4 (olivetolic acid [2]; in words, OA feed, 48 h): less FCBGA byproduct; activity towards CBGA formation compared to MPT4 (olivetolic acid [2]; in words, OA feed, 48 h): increased activity towards CBGA formation
B6 |  | 123 ± 13 | 23 ± 2 | 5.3 | 19 ± 2 | 0 ± 0 | CBGVA (divarinic acid [6]): 19 ± 2 µM; FCBGVA (divarinic acid [6]): 0 ± 0 µM; CBGA (olivetolic acid [7]; 2% glucose, strain sCL-SE-0128): 123 ± 13 µM; FCBGA (olivetolic acid [7]; 2% glucose, strain sCL-SE-0128): 23 ± 2 µM; CBGA/FCBGA (olivetolic acid [7]; product ratio): 5.3; CBGA (olivetolic acid [8]; [11]): 230 ± 15 µM; FCBGA (olivetolic acid [8]; [11]): 51 ± 1 µM; CBGA/FCBGA (olivetolic acid [8]; product ratio): 4.5
